# Source: the supplement of paper PMC9112550, “Optimization of the antimicrobial peptide Bac7 by deep mutational scanning” (BMC Biology, 2022)
# Test system: Escherichia coli TOP10
# Assay: shrunken log2 fold change of peptide-encoding DNA abundance (4.5 h post-induction vs induction); higher = less antimicrobial activity (less host growth inhibition)
# Conditions: time post-induction: 4.5 h; library: site-saturation at positions 5, 18, 19, 20
# 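Note: peptides expressed intracellularly from a pBAD plasmid library in pooled LB shake-flask culture, induced with 0.3% L-arabinose, DNA abundance read by NGS, three biological replicates, DESeq2 with apeglm shrinkage.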
row,Sequence,shrunken log2 fold change
1,RRIRHRPPRLPRPRPRPGLWPRP,0.0565
2,RRIRNRPPRLPRPRPRPGFFPRP,0.263
3,RRIRARPPRLPRPRPRPVKIPRP,0.0527
4,RRIRNRPPRLPRPRPRPAMGPRP,0.288
5,RRIRPRPPRLPRPRPRPEVQPRP,0.0715
6,RRIRDRPPRLPRPRPRPKNIPRP,-0.465
7,RRIRFRPPRLPRPRPRPFDAPRP,-0.0477
8,RRIRKRPPRLPRPRPRPVVMPRP,3.16
9,RRIRFRPPRLPRPRPRPVPAPRP,0.217
10,RRIRQRPPRLPRPRPRPNDQPRP,-0.00615
11,RRIRNRPPRLPRPRPRPRKDPRP,0.00266
12,RRIRERPPRLPRPRPRPVYFPRP,-0.207
13,RRIRNRPPRLPRPRPRPIECPRP,0.0138
14,RRIRDRPPRLPRPRPRPWIGPRP,0.0362
15,RRIRRRPPRLPRPRPRPHELPRP,0.429
16,RRIRERPPRLPRPRPRPKPTPRP,0.148
17,RRIRSRPPRLPRPRPRPIFWPRP,0.403
18,RRIRGRPPRLPRPRPRPYSLPRP,-0.158
19,RRIRARPPRLPRPRPRPDTQPRP,0.374
20,RRIRCRPPRLPRPRPRPLNCPRP,-0.279
21,RRIRKRPPRLPRPRPRPPVMPRP,0.337
22,RRIRSRPPRLPRPRPRPSCCPRP,-0.102
23,RRIRGRPPRLPRPRPRPTTRPRP,0.79

row,Sequence,shrunken log2 fold change
1,RRIRVRPPRLPRPRPRPTFSPRP,-0.3
2,RRIRHRPPRLPRPRPRPCTNPRP,-0.249
3,RRIRQRPPRLPRPRPRPWATPRP,0.136
4,RRIRCRPPRLPRPRPRPNFWPRP,-0.136
5,RRIRERPPRLPRPRPRPEYTPRP,-0.313
6,RRIRARPPRLPRPRPRPNNLPRP,-0.561
7,RRIRQRPPRLPRPRPRPIRTPRP,-0.0597
8,RRIRYRPPRLPRPRPRPPDYPRP,-2.1
9,RRIRLRPPRLPRPRPRPWLIPRP,-0.00228
10,RRIRLRPPRLPRPRPRPMHGPRP,0.0554
11,RRIRSRPPRLPRPRPRPYMGPRP,-0.776
12,RRIRTRPPRLPRPRPRPKMTPRP,0.214
13,RRIRCRPPRLPRPRPRPCWSPRP,-0.352
14,RRIRWRPPRLPRPRPRPPILPRP,0.27
15,RRIRSRPPRLPRPRPRPWNIPRP,-0.0599
16,RRIRVRPPRLPRPRPRPDRTPRP,-0.252
17,RRIRPRPPRLPRPRPRPLHMPRP,-0.342
18,RRIRIRPPRLPRPRPRPRFYPRP,-0.124
19,RRIRTRPPRLPRPRPRPMPFPRP,-0.00604
20,RRIRDRPPRLPRPRPRPKLSPRP,0.0504
21,RRIRQRPPRLPRPRPRPGLTPRP,-0.483
22,RRIRHRPPRLPRPRPRPRQCPRP,-0.0969
23,RRIRSRPPRLPRPRPRPDCDPRP,0.152

row,Sequence,shrunken log2 fold change
1,RRIRYRPPRLPRPRPRPPQKPRP,-0.123
2,RRIRWRPPRLPRPRPRPMREPRP,1.09
3,RRIRVRPPRLPRPRPRPEDSPRP,0.0654
4,RRIRCRPPRLPRPRPRPDEIPRP,0.146
5,RRIRFRPPRLPRPRPRPQPKPRP,0.666
6,RRIRCRPPRLPRPRPRPDSAPRP,-0.181
7,RRIRTRPPRLPRPRPRPVSRPRP,0.464
8,RRIRSRPPRLPRPRPRPVPYPRP,-0.248
9,RRIRFRPPRLPRPRPRPKDKPRP,-0.223
10,RRIRFRPPRLPRPRPRPPPCPRP,0.898
11,RRIRGRPPRLPRPRPRPERCPRP,0.203
12,RRIRPRPPRLPRPRPRPLATPRP,0.605
13,RRIRDRPPRLPRPRPRPIWVPRP,-0.0618
14,RRIRQRPPRLPRPRPRPAAVPRP,-0.0726
15,RRIRQRPPRLPRPRPRPIKKPRP,-0.1
16,RRIRRRPPRLPRPRPRPAIFPRP,-0.0696
17,RRIRPRPPRLPRPRPRPMCWPRP,0.156
18,RRIRARPPRLPRPRPRPNFCPRP,0.24
19,RRIRWRPPRLPRPRPRPYDFPRP,-0.181
20,RRIRYRPPRLPRPRPRPEASPRP,-0.0105
21,RRIRMRPPRLPRPRPRPVGHPRP,0.193
22,RRIRDRPPRLPRPRPRPRLDPRP,0.173
23,RRIRGRPPRLPRPRPRPLPSPRP,0.83

row,Sequence,shrunken log2 fold change
1,RRIRARPPRLPRPRPRPQATPRP,0.389
2,RRIRFRPPRLPRPRPRPMGFPRP,-0.0249
3,RRIRWRPPRLPRPRPRPYGMPRP,-0.4
4,RRIRKRPPRLPRPRPRPLIYPRP,-0.213
5,RRIRTRPPRLPRPRPRPDCRPRP,0.106
6,RRIRMRPPRLPRPRPRPTNTPRP,0.176
7,RRIRNRPPRLPRPRPRPHPDPRP,-0.15
8,RRIRPRPPRLPRPRPRPHDMPRP,-1.48
9,RRIRCRPPRLPRPRPRPWCQPRP,-0.32
10,RRIRPRPPRLPRPRPRPRAQPRP,0.33
11,RRIRMRPPRLPRPRPRPHRNPRP,-0.181
12,RRIRTRPPRLPRPRPRPLCGPRP,0.0512
13,RRIRKRPPRLPRPRPRPRPLPRP,0.73
14,RRIRYRPPRLPRPRPRPKVNPRP,-0.599
15,RRIRCRPPRLPRPRPRPFHCPRP,-0.451
16,RRIRDRPPRLPRPRPRPVWLPRP,0.105
17,RRIRKRPPRLPRPRPRPREYPRP,0.261
18,RRIRSRPPRLPRPRPRPADQPRP,0.58
19,RRIRNRPPRLPRPRPRPKFEPRP,0.0146
20,RRIRRRPPRLPRPRPRPTDLPRP,-0.162
21,RRIRERPPRLPRPRPRPSWPPRP,-0.079
22,RRIRFRPPRLPRPRPRPRIKPRP,-0.168
